Measurements: paper PMC10397247
Blank lines part the entries; values can stand above or below the binder they belong to.

What was measured:
[1] = biological target: T1, 4H2717-bA; assay: two-hybrid library CCNG1;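 also: natural log of median RNA to DNA barcode read ratio; higher means stronger binding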
T1 chain: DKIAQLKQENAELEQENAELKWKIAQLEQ

[2] = biological target: T2, 4H348-bA; assay: two-hybrid library CCNG1;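 also: natural log of median RNA to DNA barcode read ratio; higher means stronger binding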
T2 chain: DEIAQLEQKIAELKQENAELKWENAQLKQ

[3] = biological target: T3, 4H3277-bA; assay: two-hybrid library CCNG1;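 also: natural log of median RNA to DNA barcode read ratio; higher means stronger binding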
T3 chain: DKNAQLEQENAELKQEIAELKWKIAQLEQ

[4] = biological target: T4, 4H2692-bA; assay: two-hybrid library CCNG1;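 also: natural log of median RNA to DNA barcode read ratio; higher means stronger binding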
T4 chain: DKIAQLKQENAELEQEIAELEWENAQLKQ

[5] = biological target: T5, 4H2438-bA; assay: two-hybrid library CCNG1;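 also: natural log of median RNA to DNA barcode read ratio; higher means stronger binding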
T5 chain: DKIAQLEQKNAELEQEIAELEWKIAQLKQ

[6] = biological target: T6, 4H2839-bA; assay: two-hybrid library CCNG1;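 also: natural log of median RNA to DNA barcode read ratio; higher means stronger binding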
T6 chain: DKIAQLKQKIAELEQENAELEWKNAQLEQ

[7] = biological target: T7, 4H2473-bA; assay: two-hybrid library CCNG1
T7 chain: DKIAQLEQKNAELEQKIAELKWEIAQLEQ

[8] = biological target: T8, 4H477-bA; assay: two-hybrid library CCNG1
T8 chain: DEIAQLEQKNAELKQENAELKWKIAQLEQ

[9] = biological target: T9, 4H2915-bA; assay: two-hybrid library CCNG1
T9 chain: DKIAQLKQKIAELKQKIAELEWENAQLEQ

[10] = biological target: T10, 4H492-bA; assay: two-hybrid library CCNG1
T10 chain: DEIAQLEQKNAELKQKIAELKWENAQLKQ

[11] = biological target: T11, 4H319-bA; assay: two-hybrid library CCNG1
T11 chain: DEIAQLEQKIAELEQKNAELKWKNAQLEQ

[12] = biological target: T12, 4H3057-bA; assay: two-hybrid library CCNG1
T12 chain: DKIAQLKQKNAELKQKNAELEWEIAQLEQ

[13] = biological target: T13, 4H40-bA; assay: two-hybrid library CCNG1
T13 chain: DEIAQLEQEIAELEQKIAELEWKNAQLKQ

[14] = biological target: T14, 4H2223-bA; assay: two-hybrid library CCNG1
T14 chain: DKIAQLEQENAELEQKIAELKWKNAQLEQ

[15] = biological target: T15, 4H2503-bA; assay: two-hybrid library CCNG1
T15 chain: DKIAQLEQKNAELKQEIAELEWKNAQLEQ

[16] = biological target: T16, 4H2588-bA; assay: two-hybrid library CCNG1
T16 chain: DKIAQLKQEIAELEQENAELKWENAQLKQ

[17] = biological target: T17, 4H741-bA; assay: two-hybrid library CCNG1
T17 chain: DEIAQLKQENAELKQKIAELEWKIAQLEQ

[18] = biological target: GCN2_T; assay: two-hybrid library CCmax
[19] = biological target: T18, 4H2600-AA; assay: two-hybrid library CCmax; details: mean of both orientations
T18 chain: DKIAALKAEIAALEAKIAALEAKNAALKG

[20] = biological target: T19, 4H3782-AA; assay: two-hybrid library CCmax; details: mean of both orientations
T19 chain: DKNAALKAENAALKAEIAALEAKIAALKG

[21] = biological target: T20, 4H355-AA; assay: two-hybrid library CCmax; details: mean of both orientations
T20 chain: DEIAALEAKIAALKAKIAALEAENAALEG

[22] = biological target: T21, 4H486-AA; assay: two-hybrid library CCmax; details: mean of both orientations
T21 chain: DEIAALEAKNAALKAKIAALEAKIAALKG

[23] = biological target: 4H_GCN4; assay: two-hybrid library CCmax
Chain of 4H_GCN4 (chain, as listed by the source): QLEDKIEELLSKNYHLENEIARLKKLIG

[24] = biological target: T22, 4H465-AA; assay: two-hybrid library CCmax; details: mean of both orientations
T22 chain: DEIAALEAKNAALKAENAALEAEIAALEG

[25] = biological target: T23, 4H3365-AA; assay: two-hybrid library CCmax; details: mean of both orientations
T23 chain: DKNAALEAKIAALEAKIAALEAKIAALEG

[26] = biological target: T24, 4H3705-AA; assay: two-hybrid library CCmax; details: mean of both orientations
T24 chain: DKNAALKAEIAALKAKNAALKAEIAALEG

[27] = biological target: T25, 4H2750-AA; assay: two-hybrid library CCmax; details: mean of both orientations
T25 chain: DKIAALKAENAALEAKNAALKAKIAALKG

[28] = biological target: T26, 4H656-AA; assay: two-hybrid library CCmax
T26 chain: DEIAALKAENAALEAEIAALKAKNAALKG

[29] = biological target: T27, 4H2721-AA; assay: two-hybrid library CCmax; details: mean of both orientations
T27 chain: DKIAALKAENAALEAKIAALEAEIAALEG

[30] = biological target: T28, 4H2898-AA; assay: two-hybrid library CCmax; details: mean of both orientations
T28 chain: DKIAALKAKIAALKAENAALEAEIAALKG

[31] = biological target: T29, 4H_APH; assay: two-hybrid library CCmax; details: mean of both orientations
T29 chain: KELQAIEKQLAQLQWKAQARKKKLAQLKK

[32] = biological target: T30, 4H535-AA; assay: two-hybrid library CCmax; details: mean of both orientations
T30 chain: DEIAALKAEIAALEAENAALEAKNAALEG

[33] = biological target: T31, 4H1802-AA; assay: two-hybrid library CCmax
T31 chain: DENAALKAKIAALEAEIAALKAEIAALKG

[34] = biological target: T32, 4H58-AA; assay: two-hybrid library CCmax; details: mean of both orientations
T32 chain: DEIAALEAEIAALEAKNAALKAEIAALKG

[35] = biological target: T33, 4H_BCR; assay: two-hybrid library CCmax; details: mean of both orientations
T33 chain: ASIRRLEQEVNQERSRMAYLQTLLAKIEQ

[36] = biological target: T34, 4H3020-AA; assay: two-hybrid library CCmax; details: mean of both orientations
T34 chain: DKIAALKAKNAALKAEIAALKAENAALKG

[37] = biological target: T35, 4H895-AA; assay: two-hybrid library CCmax; details: mean of both orientations
T35 chain: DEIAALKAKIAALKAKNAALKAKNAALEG

[38] = biological target: T36, 4H3651-AA; assay: two-hybrid library CCmax; details: mean of both orientations
T36 chain: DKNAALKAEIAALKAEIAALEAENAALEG

interaction score [1]: -0.279 | interaction score [2]: -1.22 | interaction score [3]: -0.571 | interaction score [4]: -0.196 | interaction score [5]: 0.457 | interaction score [6]: -0.368 | interaction score [7]: -0.247 | interaction score [8]: -1.47 | interaction score [9]: 0.32 | interaction score [10]: 1.49 | interaction score [11]: -0.61 | interaction score [12]: 0.223 | interaction score [13]: -1.46 | interaction score [14]: 0.291 | interaction score [15]: 1.47 | interaction score [16]: -0.336 | interaction score [17]: 0.169
B1: 4H2223-bA (peptide)
chain: DKIAQLEQENAELEQKIAELKWKNAQLEQ

interaction score [18]: -1.36 | interaction score [19]: -0.95 | interaction score [20]: -1.38 | interaction score [21]: -0.981 | interaction score [22]: -1.28 | interaction score [23]: -1.26 | interaction score [24]: -1.48 | interaction score [25]: -1.3 | interaction score [26]: -1.42 | interaction score [27]: -1.63 | interaction score [28]: -2.89 | interaction score [29]: -1.29 | interaction score [30]: -1.81 | interaction score [31]: -1.86 | interaction score [32]: -1.73 | interaction score [33]: 1.63 | interaction score [34]: -1.15 | interaction score [35]: -1.68 | interaction score [36]: -1.81 | interaction score [37]: -1.85 | interaction score [38]: -1.48
B2: 4H1802-AA (peptide)
chain: DENAALKAKIAALEAEIAALKAEIAALKG
